Measurements reported in the supplement of paper PMC9233669.
Variants at the floor of the assay were thinned out.

What was measured:
[1] = system: biotinyl-Phe-oxazolone; assay: self-aminoacylation, catalytic enhancement (BFO) (fold over background); higher = more active; k-Seq, kA / k0A0; sequences stand for … in GGGAAUGGAUCCACAUCUACGAAUUC…UUCACUGCAGACUUGACGAAGCUG
Method in brief: (§1)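 Mutagenized RNA pools with a 21-nt variable region (0.43 μM) reacted with each biotinyl-aminoacyl-oxazolone at 2–1250 μM. Reactions ran in 50 μL HEPES/NaCl/KCl/MgCl2/CaCl2 buffer with 5% acetonitrile, pH 6.9–7.0, for 90 minutes at room temperature. Streptavidin-captured RNA was quantified by triplicate qPCR and Illumina sequencing, and per-sequence fraction reacted was fit to a pseudo-first-order model with 1000 bootstraps. Catalytic enhancement is median kA divided by the uncatalyzed rate, the low-activity peak of a bimodal Gaussian fit.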

[2] = system: biotinyl-Ile-oxazolone; assay: self-aminoacylation, catalytic enhancement (BIO) (fold over background); higher = more active; k-Seq, kA / k0A0; sequences stand for … in GGGAAUGGAUCCACAUCUACGAAUUC…UUCACUGCAGACUUGACGAAGCUG
Method in brief: as §1

[3] = system: biotinyl-Met-oxazolone; assay: self-aminoacylation, catalytic enhancement (BMO) (fold over background); higher = more active; k-Seq, kA / k0A0; sequences stand for … in GGGAAUGGAUCCACAUCUACGAAUUC…UUCACUGCAGACUUGACGAAGCUG
Method in brief: as §1

[4] = system: biotinyl-Val-oxazolone; assay: self-aminoacylation, catalytic enhancement (BVO) (fold over background); higher = more active; k-Seq, kA / k0A0; sequences stand for … in GGGAAUGGAUCCACAUCUACGAAUUC…UUCACUGCAGACUUGACGAAGCUG
Method in brief: as §1

[5] = system: biotinyl-Leu-oxazolone; assay: self-aminoacylation, catalytic enhancement (BLO) (fold over background); higher = more active; k-Seq, kA / k0A0; sequences stand for … in GGGAAUGGAUCCACAUCUACGAAUUC…UUCACUGCAGACUUGACGAAGCUG
Method in brief: as §1

[6] = system: biotinyl-Trp-oxazolone; assay: self-aminoacylation, catalytic enhancement (BWO) (fold over background); higher = more active; k-Seq, kA / k0A0; sequences stand for … in GGGAAUGGAUCCACAUCUACGAAUUC…UUCACUGCAGACUUGACGAAGCUG
Method in brief: as §1

Row | Sequence | self-aminoacylation [1] | self-aminoacylation [2] | self-aminoacylation [3] | self-aminoacylation [4] | self-aminoacylation [5] | self-aminoacylation [6]
1 | AAGUUUGCUAAUAGUCUCGAG [Fam3.1 aminoacylation ribozyme variant] | 2.01 | 1.06 | 1.02 | 0.95 | 1.14 | 1.96
2 | AUUACCCUGGUCGUCAAGUGA [Fam2.1 aminoacylation ribozyme variant] | 0.371 | 0.713 | 0.773 | 0.836 | 0.821 | 0.394
3 | CUACUUCAAAAAAUCGGACUG [Fam1A.1 aminoacylation ribozyme variant] | 3.47 | 0.922 | 0.652 | 0.539 | 0.733 | 2.3
4 | AUUACCCUGGUCAUCGAGUUG [Fam2.1 aminoacylation ribozyme variant] | 3.62 | 1.27 | 2.14 | 1.75 | 2.04 | 1.47
5 | CCAUACUUCAAGGAAUCGGUC [Fam1B.1 aminoacylation ribozyme variant] | 3.91 | 0.976 | 1.06 | 0.934 | 1.07 | 3.57
6 | AUACACCUAGGUCAUCGCGUG [Fam2.2 aminoacylation ribozyme variant] | 69.7 | 4.68 | 8.65 | 5.01 | 10.4 | 8.07
7 | AUUACGCUGGUCGUCGAGUGA [Fam2.1 aminoacylation ribozyme variant] | 4.94 | 1.37 | 1.25 | 1.36 | 1.49 | 1.37
8 | AUUGCCCUGGUCAUCCAGUGA [Fam2.1 aminoacylation ribozyme variant] | 44.4 | 3.7 | 6.42 | 4.02 | 7.38 | 7.66
9 | AUUCACCGAGGUCAUCGAGUG [Fam2.2 aminoacylation ribozyme variant] | 12.6 | 1.75 | 2.89 | 2.17 | 3.6 | 2.82
10 | CCACACUUCAAGCCAUCGGUG [Fam1B.1 aminoacylation ribozyme variant] | 31.3 | 3.57 | 4.72 | 4.15 | 6.79 | 4.89
11 | AUUCACCUAAGUCAUCGGGGG [Fam2.2 aminoacylation ribozyme variant] | 10.9 | 1.92 | 2.48 | 1.76 | 2.5 | 2.27
12 | AUUCAUCUAGGUCAUCGGGUG [Fam2.2 aminoacylation ribozyme variant] | 39.2 | 4.88 | 7.46 | 4.7 | 9.76 | 7.12
13 | CUACUCCAAACUAUCGGUCUG [Fam1A.1 aminoacylation ribozyme variant] | 0.747 | 0.926 | 0.806 | 1.07 | 0.872 | 0.822
14 | CCACACUCCAAGCAAUCAGUC [Fam1B.1 aminoacylation ribozyme variant] | 1.54 | 0.781 | 0.699 | 0.911 | 0.73 | 0.672
15 | CUACUUCAAACAAUCGCUCUC [Fam1A.1 aminoacylation ribozyme variant] | 2.18 | 0.621 | 0.384 | 1.02 | 0.515 | 1.2
16 | CCACACGUCAAGCGAUCGGUC [Fam1B.1 aminoacylation ribozyme variant] | 1.06 | 1.21 | 1.14 | 2.3 | 1.11 | 1.61
17 | CUACAGCAAACAAUCGGUCUG [Fam1A.1 aminoacylation ribozyme variant] | 0.421 | 0.48 | 0.482 | 0.65 | 0.577 | 0.574
18 | CCACAGUUCAACCAAUCGGUC [Fam1B.1 aminoacylation ribozyme variant] | 6.48 | 1.28 | 1.23 | 1.26 | 1.51 | 5.76
19 | CUACUUCACACCAUCGGUCUG [Fam1A.1 aminoacylation ribozyme variant] | 0.625 | 0.82 | 0.943 | 0.949 | 0.764 | 0.885
20 | GUUCACCUAGGUAAUCGGGUG [Fam2.2 aminoacylation ribozyme variant] | 9.25 | 2.38 | 2.74 | 2.12 | 2.92 | 3.83
21 | CUACUUGAAUCAAUCGGUCUG [Fam1A.1 aminoacylation ribozyme variant] | 0.466 | 0.857 | 0.811 | 0.782 | 0.705 | 0.582
22 | CCACACGUCAACCAAUCGGUC [Fam1B.1 aminoacylation ribozyme variant] | 1.24 | 1.09 | 1.07 | 1.47 | 1.17 | 1.32
23 | AUUCACUUAGGUCAUCUGGUG [Fam2.2 aminoacylation ribozyme variant] | 12.6 | 2.06 | 3.11 | 2.1 | 3.65 | 3.19
24 | CCACACUACAAGCAACCGGUC [Fam1B.1 aminoacylation ribozyme variant] | 1.03 | 1.29 | 0.649 | 0.674 | 0.948 | 0.793
25 | CUACACUUCAAACAAUCGGUC [Fam1B.1 aminoacylation ribozyme variant] | 88.2 | 1.22 | 1.34 | 1.27 | 2.08 | 39
26 | AUUACCCUGAUCAUCCAGUGA [Fam2.1 aminoacylation ribozyme variant] | 16.9 | 2.91 | 5.79 | 3.49 | 5.22 | 7.09
